From patent WO2009024653A1 (dated 2009)

What was measured:
[1] = target: T1, RHD5, human monoclonal IgG1 antibody directed against the C1 domain of factor VIII (LMBP 6165CB); assay: competition ELISA, coated recFVIII, RHD5 at 2 ug/ml pre-incubated with 18B6
T1 construct: Human IgG1; also called anticorps RHD5; anti-C1 antibody

[2] = target: T1, RHD5, human monoclonal IgG1 antibody …; assay: cell-based or functional assay
[3] = target: T1, RHD5, human monoclonal IgG1 antibody …; assay: SPR (Biacore), RHD5 immobilised on a CM5 chip, 18B6 injected

T1 sequence (VH, as listed by the source, chain 1 of 2): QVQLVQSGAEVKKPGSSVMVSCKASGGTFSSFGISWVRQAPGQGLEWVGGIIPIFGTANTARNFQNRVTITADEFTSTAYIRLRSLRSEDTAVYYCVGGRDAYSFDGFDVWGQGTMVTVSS
T1 sequence (VL, as listed by the source, chain 2 of 2): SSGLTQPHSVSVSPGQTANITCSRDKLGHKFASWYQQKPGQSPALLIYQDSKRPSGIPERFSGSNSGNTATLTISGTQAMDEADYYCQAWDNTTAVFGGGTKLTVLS

RHD5/18B6 molar ratio at 50% inhibition of RHD5 binding to FVIII [1]: 2.5 molar ratio RHD5/18B6
percent inhibition of RHD5 binding to FVIII at an equimolar ratio [1]: 92%
neutralisation of the inhibitory (anti-FVIII) activity of RHD5, chromogenic factor VIII test (DADE), RHD5 0.4 ug/ml, FVIII Kogenate 0.5 U/ml [2]: 50 % neutralisation at an equimolar RHD5/18B6 ratio
koff [3]: 1.45e-05 s⁻¹
kon [3]: 4260 M⁻¹ s⁻¹
B1: anti-idiotypic monoclonal antibody 18B6 (produced by hybridoma 18B6, CNCM I-3559) (antibody, mouse IgG1, V domains shown)
VH: QVQLQQSGAELAKPGASVKMSCKASGYTFTTYWMHWIKQRPGQDLEWIGYINPTSGYTEYNQNFKDKATLTADKSSSTAYMQLNSLTSEDSAVYFCARSGAYYRYDDAMDSWGQGTSVTVSS
VL: QIVLSQSPAILSASPGEKVTMTCRASSSVSYMNWYQQKPGSSPKPWIYATSNLASGVPARFSGSGSGTSYSLTISRVEAEDAATYYCQQWSSNPPMLTFGAGTKLELK
notes: also called anticorps anti-idiotypique 18B6; clone 18B6 anti-RHD5
